Residue numbers refer to the chain shown, from its start.
B1: R2N90: microbial HemY protoporphyrinogen oxidase, SEQ ID NO:4 (protein, listed as Bacillus pumilus)
chain: MHDNQKHLVIIGGGITGLAAAFYLEKEVEEKGLPIQISLIEASPRLGGKIQTLYKDGYIIERGPDSFLERKVSGPQLAKDVGLSDQLVNNETGQAYVLVNEKLHPMPKGAVMGIPTQISPFITTGLFSVAGKARAAMDFVLPKSKQTEDQSLGEFFRRRVGDEVVENLIEPLLSGIYAGDIDRLSLMSTFPQFYQTEQQHRSLILGMKKSQQHAKAQQVTAKKQGQFQTINQGLQSLVEAVEGKLKLTTVYKGTKVKQIEKTDGGYGLQLDSGQTLFADSAIVTTPHQSIYSMFPKEAGLEYLHDMTSTSVATVALGFKDEDVHNEYDGTGFVISRNSDFSITACTWTNKKWPHTAPKGKTLLRAYVGKAGDESIVEQSDSQIVSIVLEDLKKIMDIKADPELTTVTRWKTSMPQYHVGHQKAISNMRETFKQSYPGVYITGAAFEGVGIPDCIDQGKAAISEAVSYLFS
B2: R2N100: microbial HemY protoporphyrinogen oxidase, SEQ ID NO:5 (protein, listed as Bacillus pumilus)
chain: B1 chain with K102T, Q199K, S236A, G243S, V250I, L268V, F277L, D320E, S381H

How the values were obtained:
[1] = system: hemG knockout E. coli strain; assay type: cell-based; conditions: acifluorfen and S-3100
[2] = PPO enzyme assay, apparent Km for substrate; assay type: biochemical; conditions: substrate protoporphyrinogen
[3] = system: transgenic soybean plants; assay: S-3100 tolerance of transformed soybean plantlets at five weeks; assay type: in vivo; design: key to Tolerance score to S-3100 at 5 weeks: 0 for poor tolerance, high damage, low green coloration; 1 for some tolerance, average damage, moderate green coloration; 2 for good tolerance, low damage, high green coloration; conditions: for tolerance to the PPO herbicide in high-throughput screening at five weeks: S-3100, over the constructs with different transit peptides; for Tolerance score to S-3100 at 5 weeks: day four post application
Description: The microbial HemY PPO enzymes were expressed in transgenic soybean plants, and the transgenic plants were analyzed for PPO herbicide tolerance. […] For plant transformation, the nucleotide sequences encoding the HemY PPO enzymes were codon optimized for dicot expression. This permitted the side-by-side comparison of the seven different HemY PPO enzymes with thirty-nine different targeting peptides using the same promoter and 3′UTR elements for gene expression
The plant transformation constructs were used to transform soybean excised embryos (germplasm A3555) using A. tumefaciens and standard methods known in the art. Four hundred explants were inoculated for each construct resulting in twelve containers per construct. A sterile PPO herbicide solution was used for herbicide tolerance testing. The herbicide solution consisted of 0.3 g of S-3100 in crop oil concentrate (5.0 mL) and 495 mL of deionized water. This was filtered through a 0.45 micron Nalgene® Rapid-Flow™ Tissue Culture Filter Unit and Surfactant-Free Cellulose Acetate membrane filter unit (VWR, Radnor, Pa., USA). The resulting sterile solution was shaken before application.
At five weeks post-transformation, four of the twelve plant containers per construct were sprayed with two passes of the sterile PPO herbicide solution. The treated plantlets were then enclosed in the container and received at least 15 hours of light exposure post spray each day for four days. At the end of day four post application of S-3100, the treated plantlets were photographed and scored on a visual scale of green coloration (green coloration was representative of healthy photosynthetic plant tissue as compared to photo-bleached tissue) versus damage. The scoring values were 0 for poor tolerance, high damage, low green coloration; 1 for some tolerance, average damage, moderate green coloration; and 2 for good tolerance, low damage, high green coloration. The results of herbicide application of S-3100 at five weeks is presented in Table 5, where n.d. indicates the analysis was not conducted.

Row | Molecule | growth rate of hemG knockout E. coli strain in presence of PPO herbicide [1] | tolerance to acifluorfen and S-3100 compared with strain containing R2N30 or R2N40 [1] | Km [2] [µM] | tolerance to the PPO herbicide in high-throughput screening at five weeks [3] | Tolerance score to S-3100 at 5 weeks ([3]; targeting peptide TP2) | Tolerance score to S-3100 at 5 weeks ([3]; targeting peptide TP5) | Tolerance score to S-3100 at 5 weeks ([3]; targeting peptide TP8) | Tolerance score to S-3100 at 5 weeks ([3]; targeting peptide TP10) | Tolerance score to S-3100 at 5 weeks ([3]; targeting peptide TP12) | Tolerance score to S-3100 at 5 weeks ([3]; targeting peptide TP14) | Tolerance score to S-3100 at 5 weeks ([3]; targeting peptide TP18) | Tolerance score to S-3100 at 5 weeks ([3]; targeting peptide TP19) | Tolerance score to S-3100 at 5 weeks ([3]; targeting peptide TP21) | Tolerance score to S-3100 at 5 weeks ([3]; targeting peptide TP22) | Tolerance score to S-3100 at 5 weeks ([3]; targeting peptide TP23) | Tolerance score to S-3100 at 5 weeks ([3]; targeting peptide TP24) | Tolerance score to S-3100 at 5 weeks ([3]; targeting peptide TP27) | Tolerance score to S-3100 at 5 weeks ([3]; targeting peptide TP28) | Tolerance score to S-3100 at 5 weeks ([3]; targeting peptide TP29) | Tolerance score to S-3100 at 5 weeks ([3]; targeting peptide TP30) | further results
1 | B1 | slower | much better | 2.8 | did not provide tolerance | 0 | 0 | 1 | 0 | 1 | 0 | 1 | 1 | 1 | 0 | 1 | 0 | 0 | 0 | 0 | 0 | Tolerance score to S-3100 at 5 weeks ([3]; targeting peptide TP9): 1; Tolerance score to S-3100 at 5 weeks ([3]; targeting peptide TP13): 0; Tolerance score to S-3100 at 5 weeks ([3]; targeting peptide TP16): 0; Tolerance score to S-3100 at 5 weeks ([3]; targeting peptide TP20): 0; Tolerance score to S-3100 at 5 weeks ([3]; targeting peptide TP31): 0; Tolerance score to S-3100 at 5 weeks ([3]; targeting peptide TP32): 0; Tolerance score to S-3100 at 5 weeks ([3]; targeting peptide TP33): 0
2 | B2 | slower | much better | 0.4 | did not provide tolerance | 0 | 0 | 1 | 1 | 0 | 1 | 1 | 1 | 0 | 0 | 0 | 0 | 0 | 1 | 0 | 0 | Tolerance score to S-3100 at 5 weeks ([3]; targeting peptide TP1): 0; Tolerance score to S-3100 at 5 weeks ([3]; targeting peptide TP3): 0; Tolerance score to S-3100 at 5 weeks ([3]; targeting peptide TP4): 0; Tolerance score to S-3100 at 5 weeks ([3]; targeting peptide TP6): 0; Tolerance score to S-3100 at 5 weeks ([3]; targeting peptide TP15): 0; Tolerance score to S-3100 at 5 weeks ([3]; targeting peptide TP17): 0; Tolerance score to S-3100 at 5 weeks ([3]; targeting peptide TP25): 0; Tolerance score to S-3100 at 5 weeks ([3]; targeting peptide TP26): 1; Tolerance score to S-3100 at 5 weeks ([3]; targeting peptide TP31): 1; Tolerance score to S-3100 at 5 weeks ([3]; targeting peptide TP32): 0; Tolerance score to S-3100 at 5 weeks ([3]; targeting peptide TP33): 0; Tolerance score to S-3100 at 5 weeks ([3]; targeting peptide TP36): 0; Tolerance score to S-3100 at 5 weeks ([3]; targeting peptide TP37): 0
